From US20220389118A1 (Chugai, published 2022)
Read-outs that look alike come from different tables or passages of the source. Values belong to the binder of their own block, whether it stands above or below them.

Key:
[1] = biological target: T1, human FcγRIIa type H extracellular domain with C-terminal His tag (human, UniProt P12318 34-217); assay: SPR (Biacore)
T1 construct: extracellular domain; also called FcγRIIaH; FcgRIIaH
T1 sequence (looked up): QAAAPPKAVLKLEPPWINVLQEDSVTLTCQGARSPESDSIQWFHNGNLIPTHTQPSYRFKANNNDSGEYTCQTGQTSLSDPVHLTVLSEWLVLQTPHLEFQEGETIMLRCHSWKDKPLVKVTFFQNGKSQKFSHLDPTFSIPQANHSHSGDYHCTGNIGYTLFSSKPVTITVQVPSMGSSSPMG

[2] = biological target: T2, human FcγRIIa type H (H131) extracellular domain with C-terminal His tag (human, UniProt P12318 34-217); assay: SPR (Biacore), antibody captured, FcγR analyte
T2 construct: extracellular domain; also called FcγRIIaH; not shown: His tag at the C terminus
T2 sequence (looked up): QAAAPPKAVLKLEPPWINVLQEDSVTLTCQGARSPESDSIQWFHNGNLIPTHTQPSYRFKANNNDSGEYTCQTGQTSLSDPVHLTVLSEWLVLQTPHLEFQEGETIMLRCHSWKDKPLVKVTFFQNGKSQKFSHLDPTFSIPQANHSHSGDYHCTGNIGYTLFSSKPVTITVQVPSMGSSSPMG

[3] = biological target: T3, human FcγRIa extracellular domain with C-terminal His tag (human, UniProt P12314 16-292); assay: SPR (Biacore), antibody captured, FcγR analyte
T3 construct: not shown: His tag at the C terminus
T3 sequence (P12314 16-292): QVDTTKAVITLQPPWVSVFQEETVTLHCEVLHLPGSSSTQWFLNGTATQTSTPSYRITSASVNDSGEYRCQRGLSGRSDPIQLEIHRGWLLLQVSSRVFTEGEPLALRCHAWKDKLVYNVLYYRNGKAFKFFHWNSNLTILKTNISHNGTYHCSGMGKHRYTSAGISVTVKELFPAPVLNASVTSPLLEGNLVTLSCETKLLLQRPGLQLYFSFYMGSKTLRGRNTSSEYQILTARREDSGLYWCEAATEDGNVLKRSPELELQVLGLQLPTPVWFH

[4] = biological target: T4, human FcγRIa extracellular domain with C-terminal His tag (human, UniProt P12314 16-292); assay: SPR (Biacore), antibody captured, FcγR analyte; remark: listed apart in the source
T4 construct: not shown: His tag at the C terminus
T4 sequence (P12314 16-292): as above

[5] = biological target: T5, human FcγRIIa type R (R131) extracellular domain with C-terminal His tag (human, UniProt P12318 34-217); assay: SPR (Biacore), antibody captured, FcγR analyte
T5 construct: extracellular domain; also called FcγRIIaR; not shown: His tag at the C terminus
T5 sequence (looked up): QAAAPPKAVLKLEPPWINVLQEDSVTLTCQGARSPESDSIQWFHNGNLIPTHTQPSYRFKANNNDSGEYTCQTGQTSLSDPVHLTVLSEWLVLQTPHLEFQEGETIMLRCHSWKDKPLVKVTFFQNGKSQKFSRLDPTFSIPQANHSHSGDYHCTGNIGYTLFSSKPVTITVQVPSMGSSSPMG

[6] = biological target: T6, human FcγRIIb extracellular domain with C-terminal His tag (human, UniProt P31994 43-217); assay: SPR (Biacore), antibody captured, FcγR analyte
T6 construct: extracellular domain; not shown: His tag at the C terminus
T6 sequence (looked up): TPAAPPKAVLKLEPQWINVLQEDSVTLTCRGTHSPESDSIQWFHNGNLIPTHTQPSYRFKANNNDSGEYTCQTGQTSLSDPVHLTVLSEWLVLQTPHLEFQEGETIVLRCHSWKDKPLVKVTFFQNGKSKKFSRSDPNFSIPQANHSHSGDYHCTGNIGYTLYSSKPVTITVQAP

[7] = biological target: T6, human FcγRIIb extracellular domain with …; assay: SPR (Biacore); KD for FcγRIIaR divided by KD for FcγRIIb
[8] = biological target: T5, human FcγRIIa type R (R131) …; assay: SPR (Biacore); KD of IL6R-B3/IL6R-L divided by KD of this antibody
[9] = biological target: T6, human FcγRIIb extracellular domain with …; assay: as above

Kd [1]: 40 µM
B1: IL6R-BP129/IL6R-L (antibody, human IgG1, kappa)
heavy: QVQLQESGPGLVKPSETLSLTCAVSGHSISHDHAWSWVRQPPGEGLEWIGFISYSGITNYNPSLQGRVTISRDNSKNTLYLQMNSLRAEDTAVYYCARSLARTTAMDYWGEGTLVTVSSASTKGPSVFPLAPSSKSTSGGTAALGCLVKDYFPEPVTVSWNSGALTSGVHTFPAVLQSSGLYSLSSVVTVPSSSLGTQTYICNVNHKPSNTKVDKKVEPKSCDKTHTCPPCPAPDLLGGDSVFLFPPKPKDTLMISRTPEVTCVVVDVSHEDPEVKFNWYVDGVEVHNAKTKPREEQDNSTYRVVSVLTVLHQDWLNGKEYKCKVSNKALPKPIEKTISKAKGQPREPQVYTLPPSRDELTKNQVSLTCLVKGFYPSDIAVEWESNGQPENNYKTTPPVLDSDGSFFLYSKLTVDKSRWQQGNVFSCSVMHEALHNHYTQESLSLSP
light: not shown
notes: EU numbering; alterations on IL6R-B3; copies: 2 + 2

Kd [2]: 2 µM
B2: IL6R-BP423/IL6R-L (antibody, human IgG1, kappa)
heavy: QVQLQESGPGLVKPSETLSLTCAVSGHSISHDHAWSWVRQPPGEGLEWIGFISYSGITNYNPSLQGRVTISRDNSKNTLYLQMNSLRAEDTAVYYCARSLARTTAMDYWGEGTLVTVSSASTKGPSVFPLAPSSKSTSGGTAALGCLVKDYFPEPVTVSWNSGALTSGVHTFPAVLQSSGLYSLSSVVTVPSSSLGTQTYICNVNHKPSNTKVDKKVEPKSCDKTHTCPPCPAPDLLGDDSVFLFPPKPKDTLMISRTPEVTCVVVDVAEEDGEVKFNWYVDGVEVHNAKTKPREEQYNSTYRVVSVLTVLHQDWLNGKEYKCKVSNKALPRPIEKTISKAKGQPREPQVYTLPPSRDELTKNQVSLTCLVKGFYPSDIAVEWESNGQPENNYKTTPPVLDSDGSFFLYSKLTVDKSRWQQGNVFSCSVMHEALHNHYTQESLSLSP
light: not shown
notes: alterations counted against IL6R-B3; copies: 2 + 2

Kd [3]: 0.07 µM
B3: IL6R-BP233/IL6R-L (antibody, human IgG1, kappa)
heavy: QVQLQESGPGLVKPSETLSLTCAVSGHSISHDHAWSWVRQPPGEGLEWIGFISYSGITNYNPSLQGRVTISRDNSKNTLYLQMNSLRAEDTAVYYCARSLARTTAMDYWGEGTLVTVSSASTKGPSVFPLAPSSKSTSGGTAALGCLVKDYFPEPVTVSWNSGALTSGVHTFPAVLQSSGLYSLSSVVTVPSSSLGTQTYICNVNHKPSNTKVDKKVEPKSCDKTHTCPPCPAPEYLGDDSVFLFPPKPKDTLMISRTPEVTCVVVDVSHEDGEVKFNWYVDGVEVHNAKTKPREEQYNSTYRVVSVLTVLHQDWLNGKEYKCKVSNKALPKPIEKTISKAKGQPREPQVYTLPPSRDELTKNQVSLTCLVKGFYPSDIAVEWESNGQPENNYKTTPPVLDSDGSFFLYSKLTVDKSRWQQGNVFSCSVMHEALHNHYTQESLSLSP
light: not shown
notes: copies: 2 + 2

Kd [4]: 0.011 µM | Kd [5]: 0.45 µM | Kd [6]: 0.016 µM | KD(IIaR)/KD(IIb) [7]: 27.8 | KD(IIaR) of parent polypeptide/KD(IIaR) of altered polypeptide [8]: 2.4 | KD(IIb) of parent polypeptide/KD(IIb) of altered polypeptide [9]: 190
B4: IL6R-BP541/IL6R-L (antibody, human IgG1, kappa)
heavy: QVQLQESGPGLVKPSETLSLTCAVSGHSISHDHAWSWVRQPPGEGLEWIGFISYSGITNYNPSLQGRVTISRDNSKNTLYLQMNSLRAEDTAVYYCARSLARTTAMDYWGEGTLVTVSSASTKGPSVFPLAPSSKSTSGGTAALGCLVKDYFPEPVTVSWNSGALTSGVHTFPAVLQSSGLYSLSSVVTVPSSSLGTQTYICNVNHKPSNTKVDKKVEPKSCDKTHTCPPCPAPDLLGDDSVFLFPPKPKDTLMISRTPEVTCVVVDVSDEDGEVQFNWYVDGVEVHNAKTKPREEQDNSTYRVVSVLTVLHQDWLNGKEYKCKVSNKALPRPIEKTISKAKGQPREPQVYTLPPSRDELTKNQVSLTCLVKGFYPSDIAVEWESNGQPENNYKTTPPVLDSDGSFFLYSKLTVDKSRWQQGNVFSCSVMHEALHNHYTQESLSLSP
light: not shown
notes: K274Q introduced into IL6R-BP230; copies: 2 + 2

Kd [1]: 30 µM
B5: IL6R-BP176/IL6R-L (antibody, human IgG1, kappa)
heavy: QVQLQESGPGLVKPSETLSLTCAVSGHSISHDHAWSWVRQPPGEGLEWIGFISYSGITNYNPSLQGRVTISRDNSKNTLYLQMNSLRAEDTAVYYCARSLARTTAMDYWGEGTLVTVSSASTKGPSVFPLAPSSKSTSGGTAALGCLVKDYFPEPVTVSWNSGALTSGVHTFPAVLQSSGLYSLSSVVTVPSSSLGTQTYICNVNHKPSNTKVDKKVEPKSCDKTHTCPPCPAPDLLGGDSVFLFPPKPKDTLMISRTPEVTCVVVDVSHEDPEVKFNWYVDGVEVHNAKTKPREEQYNSTYRVVSVLTVLHQDWLNGKEYKCKVSNDALPKPIEKTISKAKGQPREPQVYTLPPSRDELTKNQVSLTCLVKGFYPSDIAVEWESNGQPENNYKTTPPVLDSDGSFFLYSKLTVDKSRWQQGNVFSCSVMHEALHNHYTQESLSLSP
light: not shown
notes: as for B1

Kd [3]: 0.007 µM
B6: IL6R-BP249/IL6R-L (antibody, human IgG1, kappa)
heavy: QVQLQESGPGLVKPSETLSLTCAVSGHSISHDHAWSWVRQPPGEGLEWIGFISYSGITNYNPSLQGRVTISRDNSKNTLYLQMNSLRAEDTAVYYCARSLARTTAMDYWGEGTLVTVSSASTKGPSVFPLAPSSKSTSGGTAALGCLVKDYFPEPVTVSWNSGALTSGVHTFPAVLQSSGLYSLSSVVTVPSSSLGTQTYICNVNHKPSNTKVDKKVEPKSCDKTHTCPPCPAPDYLGDDSVFLFPPKPKDTLMISRTPEVTCVVVDVSDEDGEVKFNWYVDGVEVHNAKTKPREEQDNSTYRVVSVLTVLHQDWLNGKEYKCKVSNKALPRPIEKTISKAKGQPREPQVYTLPPSRDELTKNQVSLTCLVKGFYPSDIAVEWESNGQPENNYKTTPPVLDSDGSFFLYSKLTVDKSRWQQGNVFSCSVMHEALHNHYTQESLSLSP
light: not shown
notes: copies: 2 + 2

Kd [2]: 2 µM
B7: IL6R-BP451/IL6R-L (antibody, human IgG1, kappa)
heavy: QVQLQESGPGLVKPSETLSLTCAVSGHSISHDHAWSWVRQPPGEGLEWIGFISYSGITNYNPSLQGRVTISRDNSKNTLYLQMNSLRAEDTAVYYCARSLARTTAMDYWGEGTLVTVSSASTKGPSVFPLAPSSKSTSGGTAALGCLVKDYFPEPVTVSWNSGALTSGVHTFPAVLQSSGLYSLSSVVTVPSSSLGTQTYICNVNHKPSNTKVDKKVEPKSCDKTHTCPPCPAPDLLGDDSVFLFPPKPKDTLMISRTPEVTCVVVDVAEEDGEVKFNWYVDGVEVHNAKTKPREEQYNSTYRVVSVLTVLHQDWLNGKEYKCKVSNKALPRPIEKTISKAKGQPREPQVYTLPPSRDELTKNQVSLTCLVKGFYPSDIAVEWESNGQPENNYKTTPGVLDSDGSFFLYSKLTVDKSRWQQGNVFSCSVMHEALHNHYTQESLSLSP
light: not shown
notes: P396G introduced into IL6R-BP423; copies: 2 + 2

Kd [3]: 0.008 µM
B8: IL6R-BP246/IL6R-L (antibody, human IgG1, kappa)
heavy: QVQLQESGPGLVKPSETLSLTCAVSGHSISHDHAWSWVRQPPGEGLEWIGFISYSGITNYNPSLQGRVTISRDNSKNTLYLQMNSLRAEDTAVYYCARSLARTTAMDYWGEGTLVTVSSASTKGPSVFPLAPSSKSTSGGTAALGCLVKDYFPEPVTVSWNSGALTSGVHTFPAVLQSSGLYSLSSVVTVPSSSLGTQTYICNVNHKPSNTKVDKKVEPKSCDKTHTCPPCPAPDLLGDDSVFLFPPKPKDTLMISRTPEVTCVVVDVQDEDGEVKFNWYVDGVEVHNAKTKPREEQDNSTYRVVSVLTVLHQDWLNGKEYKCKVSNAALPRPIEKTISKAKGQPREPQVYTLPPSRDELTKNQVSLTCLVKGFYPSDIAVEWESNGQPENNYKTTPPVLDSDGSFFLYSKLTVDKSRWQQGNVFSCSVMHEALHNHYTQESLSLSP
light: not shown
notes: copies: 2 + 2

Kd [3]: 0.02 µM
B9: IL6R-BP220/IL6R-L (antibody, human IgG1, kappa)
heavy: QVQLQESGPGLVKPSETLSLTCAVSGHSISHDHAWSWVRQPPGEGLEWIGFISYSGITNYNPSLQGRVTISRDNSKNTLYLQMNSLRAEDTAVYYCARSLARTTAMDYWGEGTLVTVSSASTKGPSVFPLAPSSKSTSGGTAALGCLVKDYFPEPVTVSWNSGALTSGVHTFPAVLQSSGLYSLSSVVTVPSSSLGTQTYICNVNHKPSNTKVDKKVEPKSCDKTHTCPPCPAPDLLGDDSVFLFPPKPKDTLMISRTPEVTCVVVDVSDEDGEVKFNWYVDGVEVHNAKTKPREEQDNSTYRVVSVLTVLHQDWLNGKEYKCKVSNKALPKPIEKTISKAKGQPREPQVYTLPPSRDELTKNQVSLTCLVKGFYPSDIAVEWESNGQPENNYKTTPPVLDSDGSFFLYSKLTVDKSRWQQGNVFSCSVMHEALHNHYTQESLSLSP
light: not shown
notes: copies: 2 + 2
